Laboratory results reported in patent US20220204611A1 (Amgen, published 2022).

T1: soluble human TREM2 protein (TREM2 ECD-huIgG1 Fc fusion protein) (human, UniProt Q9NZC2 19-174, biotinylated)
T1 construct: also called biotinylated soluble human TREM2 protein
T1 sequence: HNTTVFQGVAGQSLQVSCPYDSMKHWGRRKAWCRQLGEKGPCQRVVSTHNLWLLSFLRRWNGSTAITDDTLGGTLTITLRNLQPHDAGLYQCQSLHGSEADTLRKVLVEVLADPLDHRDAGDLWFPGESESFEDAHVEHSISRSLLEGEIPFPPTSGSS

T2: human TREM2 on cells (human, UniProt Q9NZC2 19-230)
T2 sequence: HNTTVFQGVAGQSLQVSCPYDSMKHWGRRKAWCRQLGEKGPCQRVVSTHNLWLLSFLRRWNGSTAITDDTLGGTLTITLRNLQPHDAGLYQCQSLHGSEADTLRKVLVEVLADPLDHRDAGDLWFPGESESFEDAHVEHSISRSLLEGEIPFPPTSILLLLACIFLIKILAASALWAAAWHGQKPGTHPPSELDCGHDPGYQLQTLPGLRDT

T3: human TREM2 (human, UniProt Q9NZC2 19-174, limits assumed)
T3 sequence: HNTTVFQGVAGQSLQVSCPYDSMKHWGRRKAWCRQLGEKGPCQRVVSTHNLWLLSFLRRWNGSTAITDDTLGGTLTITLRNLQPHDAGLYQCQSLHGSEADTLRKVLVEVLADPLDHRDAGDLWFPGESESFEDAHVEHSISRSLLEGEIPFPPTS

B1: 14C12 (antibody, human IgG2, V domains shown)
VH: EVQLVQSGAEVKKPGESLMISCKGSGYSFTSYWIGWVRQMPGKGLEWMGIIYPGDSDTRYSPSFQGQVTISADKSISTAYLQWSSLKASDTAMYFCARRRQGIWGDALDFWGQGTLVTVSS
VL: EIVMTQSPATLSVSPGERATLSCRASQSVSSNLAWFQQKPGQAPRLLIYGASTRATGIPARFSVSGSGTEFTLTISSLQSEDFAVYYCLQDNNWPPTFGPGTKVDIK
notes: human IgG2 from hybridoma
B2: V72 (Fab, V domains shown)
VH: EVQLVQSGAEVKKPGESLKISCKGSGYSFTSYWIGWVRQMPGKGLEWMGIIYPGDSDTRYSPSFQGQVTISADKSISTAYLQWSSLKASDTAMYFCARGRTFYYDSSDYFDYWGQGTLVTVSS
VL: DIQMTQSPSSVSASVGDRVTITCRASQGISSWLAWYQQKPGKAPKLLIYAASSLVNGVPSRFSGSGSGTDFTLTISSLQPEDFATYFCQQADSYPRTFGQGTKLEIK
B3: V88 (Fab, V domains shown)
VH: EVQLVQSGAEVKKPGESLKISCKGSGYSFGSYWIAWVRQMPGKGLEWMGIIYPGDSDTRYSPSFQGQVTISADKSISTAYLQWSSLKASDTAMYFCARQRTFYYDSSDYFDYWGQGTLVTVSS
VL: DIQMTQSPSSVSASVGDRVTITCRASQGISSWLAWYQQKPGKAPKLLIYAASRLQRGVPSRFSGSGSGTDFTLTISSLQPEDFATYFCQQADSSPRTFGQGTKLEIK
B4: V75 (Fab, V domains shown)
VH: EVQLVQSGAEVKKPGESLKISCKGSGYSFTSYWIAWVRQMPGKGLEWMGIIYPGDSDTRYSPSFQGQVTISADKSISTAYLQWSSLKASDTAMYFCARGRTFYYDSSDYFDYWGQGTLVTVSS
VL: DIQMTQSPSSVSASVGDRVTITCRASQGISSWLAWYQQKPGKAPKLLIYAASSLQAGVPSRFSGSGSGTDFTLTISSLQPEDFATYFCQQADSYPRTFGQGTKLEIK
B5: V77 (Fab, V domains shown)
VH: EVQLVQSGAEVKKPGESLKISCKGSGYSFTSYWIAWVRQMPGKGLEWMGIIYPGDSDTRYSPSFQGQVTISADKSISTAYLQWSSLKASDTAMYFCARQRTFYYDSSDYFDYWGQGTLVTVSS
VL: DIQMTQSPSSVSASVGDRVTITCRASQGISSWLAWYQQKPGKAPKLLIYAASSRQNGVPSRFSGSGSGTDFTLTISSLQPEDFATYFCQQADSFPRTFGQGTKLEIK
B6: V87 (Fab, V domains shown)
VH: EVQLVQSGAEVKKPGESLKISCKGSGYSFRSYWIAWVRQMPGKGLEWMGIIYPGDSDVRYSPDFQGQVTISADKSISTAYLQWSSLKASDTAMYFCARSRTFYYDSSDYFDYWGQGTLVTVSS
VL: DIQMTQSPSSVSASVGDRVTITCRASQGISSWLAWYQQKPGKAPKLLIYAASSLQWGVPSRFSGSGSGTDFTLTISSLQPEDFATYFCQQADSFPRTFGQGTKLEIK
B7: V76 (Fab, V domains shown)
VH: EVQLVQSGAEVKKPGESLKISCKGSGYSFGSYWIAWVRQMPGKGLEWMGIIYPGDSDTRYSPEFQGQVTISADKSISTAYLQWSSLKASDTAMYFCARQRTFYYDSSDYSDYWGQGTLVTVSS
VL: DIQMTQSPSSVSASVGDRVTITCRASQGISSWLAWYQQKPGKAPKLLIYAASSLQKGVPSRFSGSGSGRDFTLTISSLQPEDFATYFCQQADSFPRTFGQGTKLEIK
B8: V85 (Fab, V domains shown)
VH: EVQLVQSGAEVKKPGESLKISCKGSGYSFRSYWIAWVRQMPGKGLEWMGTIYPGDSDTRYSPSFQGQVTISADKSISTAYLQWSSLKASDTAMYFCARSRTFYYDSSDYFDYWGQGTLVTVSS
VL: DIQMTQSPSSVSASVGDRVTITCRASQGISSWLAWYQQKPGKAPKLLIYAASSRQNGVPSRFSGSGSGTDFTLTISSLQPEDFATYFCQQADSFPRTFGQGTKLEIK
B9: V84 (Fab, V domains shown)
VH: EVQLVQSGAEVKKPGESLKISCKGSGYGFTSYWIAWVRQMPGKGLEWMGIIYPGDSDTRYSPSFQGQVTISADKSISTAYLQWSSLKASDTAMYFCARQRTFYYDSSDYSDYWGQGTLVTVSS
VL: DIQMTQSPSSVSASVGDRVTITCRASQGISSWLAWYQQKPGKAPKLLIYGASSLQNGVPSRFSGSGSGTDFTLTISSLQPEDFATYFCQQADSFPRTFGQGTKLEIK
B10: V74 (Fab, V domains shown)
VH: EVQLVQSGAEVKKPGESLKISCKGSGYSFASYWIAWVRQMPGKGLEWMGIIYPGDSDVRYSPSFQGQVTISADKSISTAYLQWSSLKASDTAMYFCARGRTFYYDSSDYFDYWGQGTLVTVSS
VL: DIQMTQSPSSVSASVGDRVTITCRASQGISSWLAWYQQKPGKAPKLLIYAASSLQLGVPSRFSGSGSGTDFTLTISSLQPEDFATYFCQQADSFPRTFGQGTKLEIK
B11: V86 (Fab, V domains shown)
VH: EVQLVQSGAEVKKPGESLKISCKGSGYSFGSYWLAWVRQMPGKGLEWMGIIYPGDSDTRYSPSFEGQVTISADKSISTAYLQWSSLKASDTAMYFCARSRTFYYDSSDYFDYWGQGTLVTVSS
VL: DIQMTQSPSSVSASVGDRVTITCRASQGISSWLAWYQQKPGKAPKLLIYAASSRQNGVPSRFSGSGSGTDFTLTISSLQPEDFATYFCQQADSFPRTFGQGTKLEIK
B12: V73 (Fab, V domains shown)
VH: EVQLVQSGAEVKKPGESLKISCKGSGYSFGSYWIAWVRQMPGKGLEWMGIIYPGDSDTRYSPGFQGQVTISADKSISTAYLQWSSLKASDTAMYFCARGRTFYYDSSDYFDYWGQGTLVTVSS
VL: DIQMTQSPSSVSASVGDRVTITCRASQGISSWLAWYQQKPGKAPKLLIYAASSRQNGVPSRFSGSGSGTDFTLTISSLQPEDFATYFCQQADSYPRTFGQGTKLEIK
B13: V89 (Fab, V domains shown)
VH: EVQLVQSGAEVKKPGESLKISCKGSGYSFTSYWIAWVRQMPGKGLEWMGIIYPGDSDTRYSPSFQGQVTISADKSISTAYLQWSSLKASDTAMYFCARQRTFYYDSSDYFDYWGQGTLVTVSS
VL: DIQMTQSPSSVSASVGDRVTITCRASQGISSWLAWYQQKPGKAPKLLIYAASSLQNGVPSRFSGSGSGTDFTLTISSLQPEDFATYFCQQADSHPRTFGQGTKLEIK
B14: 12G10 (antibody, human IgG2, V domains shown)
VH: EVQLLESGGGLVQPGGSLRLSCAASGFTFSSYAMSWVRQAPGKGLEWVSAIGGGGVSTYCADSVKGRFTISRDNSKNTLYLQMNSLRAEDTAVYYCAKFYIAVAGSHFDYWGQGTLVTVSS
VL: QAVPTQPSSLSASPGVLASLTCTLRSGINVGTYRIYWYQQKPGSPPQYLLRYKSDSDKQQGSGVPSRFSGSKDASANAGILLISGLQSEDEADYYCMIWYSSAVVFGGGTKLTVL

What was measured:
[1] = target: T1, soluble human TREM2 protein (TREM2 …); assay: ELISA, hybridoma supernatant on captured biotinylated TREM2 ECD-Fc
Description: Exhausted hybridoma supernatants were tested for binding to human TREM2 by ELISA. Briefly, neutravidin plates were generated by incubating a 384 well Corning Assay Plate 3702 with neutravidin (Thermo 3100B) at 10 μg/mL (40 μL/well) in 1× PBS at 4° C. overnight. The plates were washed with 1× PBS using a Biotek plate washer and then blocked with 1% milk/1× PBS (90 μL/well) at room temperature (RT) for 30 minutes. The plates were then washed again with 1× PBS using the plate washer. […] The plates were then incubated at RT for 1 hour to immobilize the TREM2 protein to the wells of the plates. Following the incubation, the plates were again washed with 1× PBS using the plate washer. 10 μL of each hybridoma supernatant to be tested and 40 μL of 1% milk/1× PBS (1:5 dilution) were added to each well of the plates and incubated at RT for 1 hour. Again, the plates were washed with 1× PBS using the plate washer. […] After the plates were washed with 1× PBS using the plate washer, 40 μL/well of TMB substrate (Neogen, lot #150114) was added to the plates and the plates were incubated at RT for 30 minutes. The reaction was quenched with 1N hydrochloric acid (40 uL/well) following the incubation period. OD readings at 450 nm were obtained with a plate reader.

human TREM2 on cells = target: T2, human TREM2 on cells; assay: cell-based or functional assay
human TREM2 [2] = target: T3, human TREM2; assay: yeast-displayed Fab FACS, 2nd screen 10 nM
human TREM2 [3] = target: T3, human TREM2; assay: yeast-displayed Fab FACS, 2nd screen 2 nM
human TREM2 [4] = target: T3, human TREM2; assay: yeast-displayed Fab FACS, 1st screen 10 nM

| Binder | OD 450 [1] [OD450] | pSyk EC50 (human TREM2 on cells) [nM] | binding signal fold over 6E7 parental (human TREM2 [2]) [fold] | binding signal fold over 6E7 parental (human TREM2 [3]) [fold] | binding signal fold over 6E7 parental (human TREM2 [4]) [fold] |
| --- | --- | --- | --- | --- | --- |
| B1 | 0.71 | 0.4 |  |  |  |
| B2 |  |  | 4.01 | 2.5 | 3.64 |
| B3 |  |  | 5.3 | 5.57 | 4.92 |
| B4 |  |  | 4.52 | 3.74 | 4.64 |
| B5 |  |  | 1.38 | 0.83 | 1.43 |
| B6 |  |  | 3.93 | 4.86 | 3.84 |
| B7 |  |  | 4.93 | 4.34 | 4.57 |
| B8 |  |  | 5.37 | 5.41 | 5.41 |
| B9 |  |  | 1.62 | 1.45 | 1.44 |
| B10 |  |  | 4.01 | 2.54 | 3.94 |
| B11 |  |  | 5.02 | 5.17 | 4.8 |
| B12 |  |  | 5.44 | 4.17 | 5.12 |
| B13 |  |  | 1.46 | 0.94 | 1.33 |
| B14 |  | 0.4 |  |  |  |
